According to patent publication US20240124553A1:
Read-outs that look alike come from different tables or passages of the source.

Legend:
[1] = target: CHIKV virus-like particles (strain 37997) (chikungunya virus)
[2] = target: CHIKV virus-like particles (strain 37997) (chikungunya virus); remark: listed apart in the source
[3] = target: CHIKV strain 181/25 (virions; also E2-E1 shown on infected cells) (chikungunya virus); assay: ELISA, CHIKV-181/25 captured with a human anti-CHIKV mAb, anti-mouse IgG-HRP
[4] = target: CHIKV E2-6K-E1 envelope proteins (strain S27) with E2 Q195A (Chikungunya virus strain S27) (UniProt Q8JUX5); assay: flow cytometry, transfected 293T cells

| Binder | EC50 (read off the curve) [1] [µg/mL] | EC50 (read off the curve) [2] [µg/mL] | EC50 (read off the curve) [3] [µg/mL] | Binding Reactivity (% WT) [4] [% WT] |
| --- | --- | --- | --- | --- |
| Mxra8-Fc (extracellular domain of mouse Mxra8 fused to mouse IgG2b Fc) (Fc fusion) SGPSGTAAASSSLVSESVVSLAAGTQAVLRCQSPRMVWTQDRLHDRQRVVHWDLSGGPGSQRRRLVDMYSAGEQRVYEPRDRDRLLLSPSAFHDGNFSLLIRAVDRGDEGVYTCNLHHHYCHLDESLAVRLEVTEDPLLSRAYWDGEKEVLVVAHGAPALMTCINRAHVWTDRHLEEAQQVVHWDRQLPGVSHDRADRLLDLYASGERRAYGPPFLRDRVSVNTNAFARGDFSLRIDELERADEGIYSCHLHHHYCGLHERRVFHLQVTEPAFEPPARASPGNGSGHSSAPSPDPTLTRGHSIINVIVPEDHTHPSGPISTINPCPPCKECHKCPAPNLEGGPSVFIFPPNIKDVLMISLTPKVTCVVVDVSEDDPDVQISWFVNNVEVHTAQTQTHREDYNSTIRVVSTLPIQHQDWMSGKEFKCKVNNKDLPSPIERTISKIKGLVRAPQVYILPPPAEQLSRKDVSLTCLVVGFNPGDISVEWTSNGHTEENYKDTAPVLDSDGSYFIYSKLNMKTSKWEKTDSFSCNVRHEGLKNYYLKKTISRSPGK | 0.01 | 0.01 | 0.1 |  |
| Mxra8-Fc (mouse Mxra8 extracellular domain fused to mouse IgG2b Fc) (Fc fusion) SGPSGTAAASSSLVSESVVSLAAGTQAVLRCQSPRMVWTQDRLHDRQRVVHWDLSGGPGSQRRRLVDMYSAGEQRVYEPRDRDRLLLSPSAFHDGNFSLLIRAVDRGDEGVYTCNLHHHYCHLDESLAVRLEVTEDPLLSRAYWDGEKEVLVVAHGAPALMTCINRAHVWTDRHLEEAQQVVHWDRQLPGVSHDRADRLLDLYASGERRAYGPPFLRDRVSVNTNAFARGDFSLRIDELERADEGIYSCHLHHHYCGLHERRVFHLQVTEPAFEPPARASPGNGSGHSSAPSPDPTLTRGHSIINVIVPEDHTHPSGPISTINPCPPCKECHKCPAPNLEGGPSVFIFPPNIKDVLMISLTPKVTCVVVDVSEDDPDVQISWFVNNVEVHTAQTQTHREDYNSTIRVVSTLPIQHQDWMSGKEFKCKVNNKDLPSPIERTISKIKGLVRAPQVYILPPPAEQLSRKDVSLTCLVVGFNPGDISVEWTSNGHTEENYKDTAPVLDSDGSYFIYSKLNMKTSKWEKTDSFSCNVRHEGLKNYYLKKTISRSPGK |  |  |  | 82.4 |
| MXRA8-2-Fc (extracellular domain of human MXRA8-2 fused to mouse IgG2b Fc) (Fc fusion) ISVLLHSGSSVPAAAGSSVVSESAVSWEAGARAVLRCQSPRMVWTQDRLHDRQRVLHWDLRGPGGGPARRLLDLYSAGEQRVYEARDRGRLELSASAFDDGNFSLLIRAVEETDAGLYTCNLHHHYCHLYESLAVRLEVTDGPPATPAYWDGEKEVLAVARGAPALLTCVNRGHVWTDRHVEEAQQVVHWDRQPPGVPHDRADRLLDLYASGERRAYGPLFLRDRVAVGADAFERGDFSLRIEPLEVADEGTYSCHLHHHYCGLHERRVFHLTVAEPHAEPPPRGSPGNGSSHSGAPGPDPTLARGHNVINVIVPESRAHASVRSPSGPISTINPCPPCKECHKCPAPNLEGGPSVFIFPPNIKDVLMISLTPKVTCVVVDVSEDDPDVQISWFVNNVEVHTAQTQTHREDYNSTIRVVSTLPIQHQDWMSGKEFKCKVNNKDLPSPIERTISKIKGLVRAPQVYILPPPAEQLSRKDVSLTCLVVGFNPGDISVEWTSNGHTEENYKDTAPVLDSDGSYFIYSKLNMKTSKWEKTDSFSCNVRHEGLKNYYLKKTISRSPGK | 0.05 |  |  |  |
